± gives the half width of the 95% confidence interval.
Legend:
[1] = folding stability dG unfold from chymotrypsin proteolysis; higher = more stable
Method: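 Folding stability of de novo designed mini-proteins (<80 aa, no Cys; designed by TrROS, TrMRF, ProteinMPNN and the joint model) was measured by cDNA display proteolysis with trypsin and chymotrypsin. Each protease was used at 11 concentrations in a threefold dilution series plus a no-protease condition. K50 was inferred by Bayesian fitting of sequencing counts, and dG unfold was derived against a sequence-predicted unfolded-state K50 (Tsuboyama et al. method). Sequences shown include variable-length N-terminal GS-type padding (SAGGSAGG...) inside a display construct carrying a PA tag. Rows were kept only if the AF2 dimer inter-PAE was >15, to exclude likely homo-oligomers.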

[2] = folding stability dG unfold (combined trypsin and chymotrypsin); higher = more stable
Procedure, shortened: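 Sequencing followed digestion of designed mini-proteins with trypsin and chymotrypsin, each at 11 concentrations in threefold dilutions together with a no-protease condition. The mini-proteins were under 80 residues, had no cysteine, sat in a PA-tagged cDNA display construct, and were kept only if AlphaFold2 dimer inter-PAE was above 15. From the counts, Bayesian fitting gave K50, and unfolding free energy was derived against a sequence-predicted unfolded-state K50 and a shared folded-state K50, per protease or combined.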

SAGGSAGGSAGGAIEEARDLAKEGGPWEATIPVYDPNGGPKTIKIRVEVERDPENGKFKSAGGSAGGSAGGS [r10_346_TrROS]
folding stability dG unfold [1]: 0.257 ± 0.12 kcal/mol
folding stability dG unfold [2]: -0.0783 ± 0.19 kcal/mol

SAGGSAGGSAGGGMILNITLIRPDGKPIVIEGPLDKPLYNPKKAGIENIPPEKLVKVEPRSAGGSAGGSAGG [r7_745_TrMRF]
folding stability dG unfold [1]: -0.891 ± 0.8 kcal/mol
folding stability dG unfold [2]: < -1 kcal/mol

SAGGNIKITDIEMEPMNMPRKNEDGKEKPRPMWQFKVRIRDDGKPIAEVPFTSMDDMRNAVKKLLKKSAGGS [r8_21_TrROS]
folding stability dG unfold [1]: -0.0964 ± 0.26 kcal/mol
folding stability dG unfold [2]: -0.182 ± 0.39 kcal/mol

SAGGSAGGSAGSMPVTVTERVVTSETPLPTDELAVKTTVTYPDGTAADFTRLLPPDAPLESAGGSAGGSAGG [r11_429_JUSTAS]
folding stability dG unfold [1]: 0.875 ± 0.042 kcal/mol
folding stability dG unfold [2]: 0.158 ± 0.18 kcal/mol

SAGGSAGGSGSSVERSPSGEVVTTTPTAGGTLRTVHDPSGTRTLTDVASGKVLATYTPAVPVASAGGSAGGS [r12_235_JUSTAS]
folding stability dG unfold [1]: -0.638 ± 0.31 kcal/mol
folding stability dG unfold [2]: < -1 kcal/mol

SAGGSAGGSAGGSAVTSDGTEVEPDQLVEEATLTPPDGEPVRLRVYAVPDSDEVVTEAGSAGGSAGGSAGGS [r4_13_TrMRF]
folding stability dG unfold [1]: 0.691 ± 0.26 kcal/mol
folding stability dG unfold [2]: < -1 kcal/mol

SAGGSAGGMVKTYKTDKETAIELAEKIKKQGVKVEITPHPDSTLLTITINEPKIDPKNSPNIIISAGGSAGG [r6_392_JUSTAS]
folding stability dG unfold [1]: 0.0843 ± 0.3 kcal/mol
folding stability dG unfold [2]: < -1 kcal/mol

SAGGTTTRTTVYFDDGKVYELTDPEEVEKTIKEKLGKNYKIVSEEEYTEPSPDGPPLPARRLKLKKKSAGGS [r16_408_JUSTAS]
folding stability dG unfold [1]: -0.795 ± 0.33 kcal/mol
folding stability dG unfold [2]: < -1 kcal/mol

SAGGTIEEIRDQLKNMPPGYHVDLKIPNGRSHSFGSLEDIEDLPITNPNGRKIEITEVQPMPPPDEQSAGGS [r16_680_TrROS]
folding stability dG unfold [1]: 0.195 ± 0.16 kcal/mol
folding stability dG unfold [2]: -0.703 ± 0.68 kcal/mol

SAMIVTEKEDPATNTTLVTTTEIYPDSITVTTTTITKSGEILTESPSTTTIPLGSPLGPENKAKNIALSSAG [r14_930_JUSTAS]
folding stability dG unfold [1]: -0.184 ± 0.14 kcal/mol
folding stability dG unfold [2]: < -1 kcal/mol

SAGGSAGGSAGGPRVGVVRELPDDSRVALLEIEETLTSPGPDGTPRSRPFRAVFVVPLGSAGGSAGGSAGGS [r10_718_TrMRF]
folding stability dG unfold [1]: 0.69 ± 0.26 kcal/mol
folding stability dG unfold [2]: -0.16 ± 0.18 kcal/mol

SAGGMTIPLEFEFESEEEAKEKAEEIAEELAKSFPEYEVEVKIEIKPVKDPNSDTTKWRVKMEITVGPSAGG [r13_545_JUSTAS]
folding stability dG unfold [1]: 4.38 ± 0.2 kcal/mol
folding stability dG unfold [2]: 4.56 ± 0.31 kcal/mol

SAGGSAGGMTIPAEKIKGKPIKVLVDRGNAIFPLKEAKVKTKPDGRVELYVPKELGEDTKIIAGSAGGSAGG [r6_628_TrMRF]
folding stability dG unfold [1]: -0.573 ± 0.18 kcal/mol
folding stability dG unfold [2]: < -1 kcal/mol

SMEFTIEVYDPVTPKVETFPVKAPKEKVIEKIREFQEKGGKVVLSGLPEEKVKEIVEEAGVDVEIVPVEKSA [r9_1207_TrMRF]
folding stability dG unfold [1]: 0.54 ± 0.09 kcal/mol
folding stability dG unfold [2]: 0.283 ± 0.19 kcal/mol

SAGVKIKWEPIDRDPKNGHVYYSITIKVPKDGKPLDEIPIGMYQFDNDDGKWEPMPEEDIKQQAKDLLNSAG [r5_909_TrROS]
folding stability dG unfold [1]: 0.0649 ± 0.34 kcal/mol
folding stability dG unfold [2]: -0.415 ± 0.52 kcal/mol

SAGMVKINVAKLPDGKYVITVVDANDGTPLLELPVDSPEGAEKAAKAIAEELKKKYPDATVEVDYTDFESAG [r5_383_TrMRF]
folding stability dG unfold [1]: 3.49 ± 0.19 kcal/mol
folding stability dG unfold [2]: 4.13 ± 0.64 kcal/mol

SAGGSAGGSEGFVLRVRRYRRRPDDRVRVPVSEAELEVLPELADAVARALREASPEVEVELRPSAGGSAGGS [r12_342_TrMRF]
folding stability dG unfold [1]: 0.0982 ± 0.27 kcal/mol
folding stability dG unfold [2]: < -1 kcal/mol

SAGGGPMPKPVEEVVEEEEDGLRVTTRITYLPTSSTTVVRTTRTVFDPRNGRPLETEELTETVPPGSSAGGS [r16_709_JUSTAS]
folding stability dG unfold [1]: -0.0368 ± 0.23 kcal/mol
folding stability dG unfold [2]: -0.181 ± 0.22 kcal/mol

SAGGSAGGGPYKTSYAIVDGSVVASTEGDPETGVVTSTFTFDGSDVEYTTPATPGEAVTRTVSLSAGGSAGG [r6_972_JUSTAS]
folding stability dG unfold [1]: 0.797 ± 0.059 kcal/mol
folding stability dG unfold [2]: 0.346 ± 0.047 kcal/mol

SAGGSALTIKVKDPEDIKDLEIQVYLPDGRPMLMKIEVQRDEGPPYVKIKAENPGNGKKRKETFPFSAGGSA [r15_1006_TrROS]
folding stability dG unfold [1]: 0.0249 ± 0.53 kcal/mol
folding stability dG unfold [2]: -0.243 ± 0.62 kcal/mol

SAGGSAGGMIVELPTPDDETLTLTTRPTPDGSVPVTATRLTPDSTEVTTVSTADPAVVELVAAASAGGSAGG [r6_607_JUSTAS]
folding stability dG unfold [1]: -0.448 ± 0.26 kcal/mol
folding stability dG unfold [2]: < -1 kcal/mol

SAGGSAGGSAGGGPPLPLRVEREEKVEKTPDDRVLIKRKVTVELPDRPLSEEESIEILLESAGGSAGGSAGG [r7_293_JUSTAS]
folding stability dG unfold [1]: 0.146 ± 0.2 kcal/mol
folding stability dG unfold [2]: -0.415 ± 0.25 kcal/mol

SAGGSAMVVVKITNPNGEKIEIEIEAETEEEAKKAAEELAKKLPKNVKVEVVKVEKVEVKDGKILKSAGGSA [r15_469_TrROS_Hall]
folding stability dG unfold [1]: -0.919 ± 0.74 kcal/mol
folding stability dG unfold [2]: < -1 kcal/mol

SAGTVFVAHSDDRPPVAAPETGTVTLPAPDGARVTLRRLPDGTAVVTPDGGESRTLGPGARVEVRLLPASAG [r5_869_TrMRF]
folding stability dG unfold [1]: -0.156 ± 0.37 kcal/mol
folding stability dG unfold [2]: < -1 kcal/mol

From the supplement of paper PMC12764529
